# Literature values as cited in PMC11271873.
# Legend:
# Conditions in all cases: free peptide
# [1] = tested on: Cterm (position 2, ----KK-----)
# [2] = tested on: Nterm (position 1, -----KK----)
# [3] = tested on: Cterm (position 3, ---KKK-----)
# [4] = tested on: Nterm (position 1, -----KKK---)
Substance,pKa [1],pKa [2],pKa [3],pKa [4]
Lys-Lys (di-lysine) (synthetic),"3,01","7,53",–,–
Lys-Lys-Lys (tri-lysine) (synthetic),–,–,"3,08","7,34"
